# Experimental data taken from the nanobody polyreactivity screen of Harvey et al. (2022).
# Experiment: yeast display, Sf9 membrane polyspecificity reagent, FACS + sequencing; frameworks hold sequencing errors
# Method in brief: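 After 36–48 hours of galactose induction, yeast (Saccharomyces cerevisiae BJ5465) displaying a synthetic nanobody library were stained at 4 °C for 1 hour with 10% biotinylated, detergent-solubilized Sf9 membrane reagent. Streptavidin microbeads enriched the stained cells before FACS sorting into low and high (top ~1%) gates on anti-HA and streptavidin fluorescence. Each clone's polyreactivity label reflects its gate of origin.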
row,Sequence,polyreactivity (PSR sort gate)
1,QVQLVESGGGLVQAGGSLRLSCAASGSIFGGYAMGSYRQAPGKERELVAAISSGGTTNYADSVKGRFTISRDNAKNTVYLQMNSLKPEDTAVYYCAREYGPTYQSVPVKFIQLDYWGQGTQVTVSS,low polyreactivity
2,QVQLVESGGVLVQARVSLRLSCAASGLTIYYYAMGWYRQAPGQERELVAAITWRGGSTYYADSVKGRFTISRDNEKNTVYLQMISLKPEVTAVYYCAADPGPYGYYYWGLGTQVTVSS,low polyreactivity
3,QGQLVESGGGVVQAGGSLRLSCAASGRIFYRNAMGWYRQAPGKVRELVAAINWSGGSTYYADSVKGRFTISRDNAKNTVYLQMNSLKPEDTAVYYCAARFVRYPSKYDYWGQGTQVTVSS,high polyreactivity
4,QVQLVESGVVLVQAGGSLRLSCAASGSTFVRYAMGWYRQAPGKERELVAANSRSGGRTYYADSVKGRFTISRDNAKHTVYLQMNSLKPEDTAVYYCYPYYIASTFDYWGQGTQVTVSS,high polyreactivity
5,QVQLVESGGGLVQAGGSLRLSCAASGGIFAWYAMGWYRQAPGKERELVAAIDHSGGSTYYADSVKGRFTISRDNAKNTVYLQMNSLKPEDTAVYYCNAGYYGYWEKYDYWGQGTQVTVSS,low polyreactivity
6,QVQLVESGGGLVQAGGSLRLSCAASGSTFYLNAMGWYRQAPGKERELVAAISRRGGSTYYADSVKGRFTISRDNAKNTVYLEMNSLKPDDTAVYYCNRARVYGYYAPFDYWGQGTQVTVSS,high polyreactivity
7,QVHLVDSGGGLVQAGGSLRLSCAASGRIIYGNAMGWYRQSPGKERELVAAISSGTSTNYADSVKGRFTISRDNAKNTVYLQMNSLKPEDTAVYYCAAGSYSRYIYSLYFDFDYWGQGTQVTVSS,low polyreactivity
8,QVQLVESVGGLVQAGGSLRLSCAASGSIFEQNAMGWYRQAPGKERELVAGINEGGGSTYYADSVKGRFTISRDNAKNTVYLQMNSLKPEDTAVYYCAAEYYDDFSYGWYDYWGQGTQVTVSS,high polyreactivity
9,QVQLVESGGGLVQAGGSLRFSCAASGSTFSYYTMGWYRQAPGKERELVATISRRGASTYYADSVKGRFTISRDNAKNTVYLQMNSLKPEDTAVYYCAKSYYYGRSATRPEYDYWGQGTQVTVSS,high polyreactivity
10,QVQLVESGGGLVQAGGSLRLSCAASGFTFRVYAMGWYRQAPGKERELVAAITKRGGSTYYADSVKGRFTISRDNAKNTVYLQMNSLKPEDTAVYYCATENTPHYASHGYWGQGTQVTVSS,high polyreactivity
11,QVQLVESGGGLVQAGGSLRLSCAASGRIFTGNAMGWYRQAPGKERELVAAISRRGTRTYYADSVKGRFTISRDNAKNTVYLQMNSLKPEDTAVYYCATRPGYWRYEYWGQGTQVTVSS,high polyreactivity
12,QVQIVESGGGLVQAGGSLRLSCADSGFISSHYAMGWYRQAPGKERELVAAISTNGGSTYYADSVKGRFTISRDNAKNTVYLQMNSLKPEDTSVYYCAAEFAVSFYWSWLGQDYNYWGQGTQVTVSS,high polyreactivity
13,QVQLVESGGGLVQAGGSLRLSCAASGSPFFRNAMGWYRPAPGTERELVADISASGGSTYYADSVKGRFTLSRDNAKNTVNLQMNSLKPEDTAVYSCNALYIYSYNYLTMDYWGQGTQVTVSS,low polyreactivity
14,QVQLVESGGGLVQAGGSLRLSCAASGRIFGGYTMGWYRQAPGKEREFVAAITSSGGSTYYADSVKGRFTISRDNAKNTVYLQMNSLKPEDTAVYYCAVDDYYYDYDYWGQGTQVTVSS,low polyreactivity
15,QVQLVESGGGLVQAGGSLSLSCAASGSIFLRNAMGWYRQAPGKETEYVASITWNGASTSYADSVMGRFTISRDNAKNTVYLQMNSLKPEDTAVYYCAARDSQYGGPGMDYWGQGTQVTVSS,low polyreactivity
16,QVQLEESGGGLVQAGGSLRLSCAPSVIIFPAYDMGWYRQAPGKERELVAAIRTSGTSTYYADSVKGRFTISRDNAKNTVYLEMNSLKPDDTAVYYCGAYQAYGGDYWGQGTQVTVSS,high polyreactivity
17,QVQLVESGGGLVQAGGSLRLSCAASGSTLYRYAMGWYRQAPGKERELVAAISSSGGSTYYADSVKGRFTISRDNAKNTVYLQMNSLKPEDTAVYYCAAYFSTAPKSQYKLDYWGQGTQVTVSS,high polyreactivity
